Results as given in patent US20250270304A1 (PHENOMIC AI, published 2025).
Where a chain is given by its changes, count along the chain named. One block for each binder: values may come before it.

How the values were obtained:
Assay in all cases: ELISA, coated antigen, OD450
Mature Activin A = biological target: T1, Mature Activin A (human, UniProt P08476 311-426)
T1 construct: also called active Activin A; INHBA mature
T1 sequence: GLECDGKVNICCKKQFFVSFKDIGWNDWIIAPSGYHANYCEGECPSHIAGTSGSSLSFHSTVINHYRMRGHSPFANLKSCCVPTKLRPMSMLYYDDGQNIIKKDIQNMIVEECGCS
Protocol: (§1) Antibodies were re-expressed in 40 mL cultures of Expi293 cells and purified using protein G magnetic sepharose beads (Cytiva, Marlborough, MA) to provide larger quantities for secondary screening. Secondary screening included dose responses in both functional assays described above (SMAD nuclear localization and fibroblast activations assays) as well as in binding assays to the same antigens listed in Table 3. Plates were coated with 25 μL of 3 μg/mL antigen in 384-well Maxisorp plates overnight at 4° C. with agitation. The next day, the samples in the plates were blocked with 70 μL blocking buffer (PBS+1% BSA+0.1% Tween-20) for 2 hours at room temperature. Plates were then washed three times with 100 μL of wash buffer (PBS+0.1% Tween-20). Primary antibodies in Expi293 expression medium were diluted 1:3 in blocking buffer, 25 μL added per well, and the plates were incubated for an hour at room temperature with agitation. Plates were then washed three times and 25 μL of secondary antibody (goat anti-Human IgG, HRP conjugated; Jackson Immunoresearch) diluted 1:5000 in blocking buffer was added for 30 minutes at room temperature. The wells in the plates were washed six times with wash buffer and TMB substrate was added followed by 1 M H3PO4.

Inhibin A = biological target: T2, Inhibin A (Homo sapiens (Human), UniProt P05111 233-366; P08476 311-426)
T2 sequence 1: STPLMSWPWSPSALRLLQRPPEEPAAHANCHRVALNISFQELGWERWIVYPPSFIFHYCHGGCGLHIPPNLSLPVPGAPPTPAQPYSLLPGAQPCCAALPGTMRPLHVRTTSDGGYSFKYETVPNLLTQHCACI
T2 sequence 2: T1 sequence
Protocol: as §1

Latent Activin A = biological target: T3, Latent Activin A (human, UniProt P08476 21-426, limits assumed)
T3 construct: also called INHBA latent
T3 sequence: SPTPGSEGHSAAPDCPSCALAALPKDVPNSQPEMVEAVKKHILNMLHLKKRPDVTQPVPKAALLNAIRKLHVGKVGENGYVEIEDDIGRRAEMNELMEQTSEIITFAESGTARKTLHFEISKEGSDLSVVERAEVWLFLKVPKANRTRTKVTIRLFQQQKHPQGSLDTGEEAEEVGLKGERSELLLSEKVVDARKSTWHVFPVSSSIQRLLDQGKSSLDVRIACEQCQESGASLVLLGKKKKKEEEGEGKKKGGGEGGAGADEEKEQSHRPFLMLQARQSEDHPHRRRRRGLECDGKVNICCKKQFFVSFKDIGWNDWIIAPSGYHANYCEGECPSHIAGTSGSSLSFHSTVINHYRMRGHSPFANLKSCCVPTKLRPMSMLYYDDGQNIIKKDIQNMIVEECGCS
Protocol: as §1

Activin B = biological target: T4, Activin B (Homo sapiens (Human), UniProt P09529 293-407)
T4 construct: also called Mature Activin B; mature Activin B
T4 sequence: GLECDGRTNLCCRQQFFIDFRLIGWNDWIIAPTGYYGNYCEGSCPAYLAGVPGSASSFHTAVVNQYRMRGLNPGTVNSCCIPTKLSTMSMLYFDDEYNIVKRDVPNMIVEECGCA
Protocol: as §1

fold-change of OD 450 over negative control (BSA) (Mature Activin A): 7.58 fold
fold-change of OD 450 over negative control (BSA) (Inhibin A): 0.86 fold
fold-change of OD 450 over negative control (BSA) (Latent Activin A): 7.44 fold
fold-change of OD 450 over negative control (BSA) (Activin B): 0.51 fold
B1: AB430 (antibody, IgG1, V domains shown)
VH: EVQLVESGGGLVQPGGSLRLSCAASGFTLSNYPMSWVRQAPGKGLELVASTTSGSSTIYYPDSVKGRFTISRDNAKNSLYLQMNSLRAEDTAVYYCARGPDYYAPLRSYMDVWGKGTTVTVSS
VL: DIVMTQSPLSLPVTPGEPASISCRSSQSLQQSEGRTYLHWYLQKPGQSPQLLIYDASKRASGVPDRFSGSGSGTDFTLKISRVEAEDVGVYYCMQVLRTPITFGGGTKVEIK

fold-change of OD 450 over negative control (BSA) (Mature Activin A): 6.34 fold
fold-change of OD 450 over negative control (BSA) (Inhibin A): 3.09 fold
fold-change of OD 450 over negative control (BSA) (Latent Activin A): 5.93 fold
fold-change of OD 450 over negative control (BSA) (Activin B): 0.72 fold
B2: AB428 (antibody, IgG1, V domains shown)
VH: EVQLVESGGGLVQPGGSLRLSCAASGFTSSNHWMSWVRQAPGKGLELVASIGPKGLGTYYPDSVKGRFTISRDNAKNSLYLQMNSLRAEDTAVYYCASIRDYGDKKGGSWFDPWGQGTLVTVSS
VL: DIVMTQSPLSLPVTPGEPASISCRSSQSLLHSSGYNFLHWYLQKPGQSPQLLIYMATNRASGVPDRFSGSGSGTDFTLKISRVEAEDVGVYYCVQDLHTLPQFGGGTKVEIK

fold-change of OD 450 over negative control (BSA) (Mature Activin A): 9.47 fold
fold-change of OD 450 over negative control (BSA) (Inhibin A): 3.43 fold
fold-change of OD 450 over negative control (BSA) (Latent Activin A): 8.12 fold
fold-change of OD 450 over negative control (BSA) (Activin B): 0.76 fold
B3: AB345 (antibody, IgG1, V domains shown)
VH: EVQLVESGGGLVQPGGSLRLSCAASGFTSSGYWMSWFRQAPGKGLELVASIGTAGVTYYPDSVKGRFTISRDNAKNSLYLQMNSLRAEDTAVYYCARGPHGPQQRLRFDPWGQGTLVTVSS
VL: DIVMTQSPLSLPVTPGEPASISCRSSQSLLSSYGYHNLHWYLQKPGQSPQLLIYMGSIRAPGVPDRFSGSGSGTDFTLKISRVEAEDVGVYYCMQGTQAPRTFGGGTKVEIK

fold-change of OD 450 over negative control (BSA) (Mature Activin A): 1.04 fold
fold-change of OD 450 over negative control (BSA) (Inhibin A): 1.13 fold
fold-change of OD 450 over negative control (BSA) (Latent Activin A): 1 fold
fold-change of OD 450 over negative control (BSA) (Activin B): 0.96 fold
B4: AB431 (antibody, IgG1, V domains shown)
VH: EVQLVESGGGLVQPGGSLRLSCAASGFTSSNHWMSWVRQAPGKGLELVASIGPKGLGTYYPDSVKGRFTISRDNAKNSLYLQMNSLRAEDTAVYYCARDVRGWRALYYYYGMDVWGQGTTVTVSS
VL: DIVMTQSPLSLPVTPGEPASISCRSSQSLLHVTGYNYLHWYLQKPGQSPQLLIYGASSRAAGVPDRFSGSGSGTDFTLKISRVEAEDVGVYYCMQSTQWPHTFGGGTKVEIK
notes: also called mAb 431

fold-change of OD 450 over negative control (BSA) (Inhibin A): 0.97 fold
fold-change of OD 450 over negative control (BSA) (Latent Activin A): 0.75 fold
fold-change of OD 450 over negative control (BSA) (Activin B): 0.61 fold
B5: AB330 (antibody, IgG1, V domains shown)
VH: QVQLVQSGAEVKKPGASVKVSCKVSGYPSPATISWVRQAPGKGLEWMGWMNPKSGYTNYAQKFQGRVTMTEDTSTDTAYMELSSLKSEDTAVYYCATLHGSGLAFDIWGQGTMVTVSS
VL: DIQMTQSPSSVSASVGDRVTITCRASQDIKSDLAWYQQKPGKAPKLLIYRASARESGVPSRFSGSGSGTDFTLTISSLQPEDFANYYCQQYRSFPWSFGGGTKVEIK
notes: also called mAb 330

fold-change of OD 450 over negative control (BSA) (Mature Activin A): 4.66 fold
fold-change of OD 450 over negative control (BSA) (Inhibin A): 4.84 fold
fold-change of OD 450 over negative control (BSA) (Latent Activin A): 4.81 fold
fold-change of OD 450 over negative control (BSA) (Activin B): 0.51 fold
B6: AB426 (antibody, IgG1, V domains shown)
VH: EVQLVESGGGLVQPGGSLRLSCAASGFTFSDHHMSWVRQAPGKGLELVASISPSGDFTYYPDSVKGRFTISRDNAKNSLYLQMNSLRAEDTAVYYCARDVSPVYYWGQGALVTVSS
VL: DIVMTQSPLSLPVTPGEPASISCRSSQSLLHWYLQKPGQSPQLLIYMGSQRAAGVPDRFSGSGSGTDFTLKISRVEAEDVGVYYCQSGVTFGGGTKVEIK

fold-change of OD 450 over negative control (BSA) (Mature Activin A): 3.18 fold
fold-change of OD 450 over negative control (BSA) (Inhibin A): 1.18 fold
fold-change of OD 450 over negative control (BSA) (Latent Activin A): 2.35 fold
fold-change of OD 450 over negative control (BSA) (Activin B): 0.75 fold
B7: AB344 (antibody, IgG1, V domains shown)
VH: EVQLVESGGGLVQPGGSLRLSCAASGYTFSNYGMSWVRQAPGKGLELVASISKSGSSIYYPDSVKGRFTISRDNAKNSLYLQMNSLRAEDTAVYYCARLPRLAWNYYYGMDVWGQGTTVTVSS
VL: DIVMTQSPLSLPVTPGEPASISCRSSRSLVHGSGDNYLHWYLQKPGQSPQLLIYMASNRAPGVPDRFSGSGSGTDFTLKISRVEAEDVGVYYCVQTLQTPSTFGGGTKVEIK

fold-change of OD 450 over negative control (BSA) (Mature Activin A): 6.71 fold
fold-change of OD 450 over negative control (BSA) (Inhibin A): 0.81 fold
fold-change of OD 450 over negative control (BSA) (Latent Activin A): 4.09 fold
fold-change of OD 450 over negative control (BSA) (Activin B): 0.98 fold
B8: AB341 (antibody, IgG1, V domains shown)
VH: B7 VH
VL: B2 VL with S33N, G34E, Y35K, F37Y, M55D, T57S, N58K, L100P, P101F, Q102T

fold-change of OD 450 over negative control (BSA) (Mature Activin A): 2.83 fold
fold-change of OD 450 over negative control (BSA) (Inhibin A): 0.23 fold
fold-change of OD 450 over negative control (BSA) (Latent Activin A): 2.34 fold
fold-change of OD 450 over negative control (BSA) (Activin B): 0.15 fold
B9: AB438 (antibody, IgG1, V domains shown)
VH: QVQLQESGPGLVKPSQTLSLTCTVSGVSLSNARLGVNWIRQPPGKGLEWIGYGSVTGSTDYNPSLKSRVTMSVDTSKNQFSLKVNSVTAADTAVYYCTTSYLVDTAMVTRWGQGTLVTVSS
VL: EIVMTQSPATLSLSPGERATLSCRASQSLGTNLAWYQQKPGQAPRLLIYGASSRPSGIPARFSGSGSGTDFTLTISSLEPEDFAVYYCQQYDTHPLSFGGGTKVEIK

fold-change of OD 450 over negative control (BSA) (Mature Activin A): 5.14 fold
fold-change of OD 450 over negative control (BSA) (Inhibin A): 0.22 fold
fold-change of OD 450 over negative control (BSA) (Latent Activin A): 4.34 fold
fold-change of OD 450 over negative control (BSA) (Activin B): 0.27 fold
B10: AB349 (antibody, IgG1, V domains shown)
VH: B9 VH
VL: EIVMTQSPATLSLSPGERATLSCRASQRIGSDLAWYQQKPGQAPRLLIYSASSRAPGIPARFSGSGSGTDFTLTISSLEPEDFAVYYCSTMAIPFGGGTKVEIK

fold-change of OD 450 over negative control (BSA) (Mature Activin A): 3.34 fold
fold-change of OD 450 over negative control (BSA) (Inhibin A): 0.77 fold
fold-change of OD 450 over negative control (BSA) (Latent Activin A): 2.74 fold
fold-change of OD 450 over negative control (BSA) (Activin B): 0.69 fold
B11: AB448 (antibody, IgG1, V domains shown)
VH: QVQLQESGPGLVKPSQTLSLTCTVSGLSLSNAKMGVNWIRQPPGKGLEWIGYVSTTGTTDYNPSLKSRVTMSVDTSKNQFSLKVNSVTAADTAVYYCARAGYPDVWGKGTTVTVSS
VL: DIQMTQSPSSVSASVGDRVTITCRASQNIGAALAWYQQKPGKAPKLLIYGASTREYGVPSRFSGSGSGTDFTLTISSLQPEDFANYYCQQYTAYPLTFGGGTKVEIK

fold-change of OD 450 over negative control (BSA) (Mature Activin A): 13.1 fold
fold-change of OD 450 over negative control (BSA) (Inhibin A): 0.72 fold
fold-change of OD 450 over negative control (BSA) (Latent Activin A): 10.3 fold
fold-change of OD 450 over negative control (BSA) (Activin B): 0.86 fold
B12: AB366 (antibody, IgG1, V domains shown)
VH: B11 VH with L27Y, S30T, N31D, K33R, M34I, V53I, S54N, T55P, T56S, T58R
VL: DIQMTQSPSSVSASVGDRVTITCRASQTISRSLAWYQQKPGKAPKLLIYDASSLAGGVPSRFSGSGSGTDFTLTISSLQPEDFANYYCQQYSSYPSLFGGGTKVEIK

fold-change of OD 450 over negative control (BSA) (Mature Activin A): 1.45 fold
fold-change of OD 450 over negative control (BSA) (Latent Activin A): 1.45 fold
B13: AB439 (antibody, IgG1, V domains shown)
VH: EVQLVQSGAEVKKPGASVKVSCKASGYTYTGYRISWVRQAPGQGLEWMGWIDPKSGRTNYAQKLQGRGTMTTDPSTSTAYMELRSLRSDDTAVYYCAREVKQWLVPGRGVYWFDPWGQGTLVTVSS
VL: ESALTQPASVSGSPGQSITISCTGTNIGLRSVSWYQQHPGKAPKLMIYDTNIRSSGVSNRFSGSKSGNTASLTISGLQAEDEADYYCSSYTSSSTDVFGGGTKLTVL
